Consider 2 molecules from patent US20050026839A1 (GENERAL HOSPITAL, published 2005).

Square brackets hold non-standard residues; d marks the D form. Ends that are not written are not given here. hArg = N=C(N)NCCCC[C@H](N)C(=O)O; Nle = CCCC[C@H](N)C(=O)O; Aib = CC(C)(N)C(=O)O

The target of experiment [1] is T1, truncated human P1R deleted for residues (24-181) (hP1R-delNt) (human, UniProt Q03431 182-593).
T1 construct: whole, on cells; also called delNT receptor
T1 sequence (looked up): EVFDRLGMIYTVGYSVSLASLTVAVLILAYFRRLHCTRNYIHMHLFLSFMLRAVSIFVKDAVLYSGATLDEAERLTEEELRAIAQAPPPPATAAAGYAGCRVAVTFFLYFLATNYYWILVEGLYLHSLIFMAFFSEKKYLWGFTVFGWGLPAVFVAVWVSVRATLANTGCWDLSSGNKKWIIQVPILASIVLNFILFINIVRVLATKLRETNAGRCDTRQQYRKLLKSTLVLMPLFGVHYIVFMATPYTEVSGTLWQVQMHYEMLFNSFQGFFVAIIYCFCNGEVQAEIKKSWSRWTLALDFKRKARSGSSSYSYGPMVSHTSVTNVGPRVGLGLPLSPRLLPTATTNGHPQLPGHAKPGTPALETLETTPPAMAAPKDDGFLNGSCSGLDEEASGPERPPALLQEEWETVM
Briefly: competition binding, COS-7 cells expressing P1R-delNt. The procedure: These cells, as well as COS-7 cells and SaOS-2-B10 cells, were cultured at […] in T-75 flasks ([…]) in Dulbecco's modified Eagle's medium (DMEM) supplemented with fetal bovine serum (10%), penicillin G (20 units/ml), streptomycin sulfate (20 μg/ml) and amphotericin B (0.05 μg/ml) in a humidified atmosphere containing 5% CO₂. Stock solutions of EGTA/trypsin and antibiotics were from GIBCO; fetal bovine serum was from Hyclone Laboratories (Logan, Utah). […] All cells, in 24-well plates, were treated with fresh media and shifted to 33° C. for 12 to 24 h prior to assay.
Competition Binding. Binding reactions were performed with HKRK-B28 cells or in COS-7 cells in 24-well plates. […] The cells were subsequently lysed with 0.5 mL […] and counted for radioactivity. For each tracer and in each experiment, the non-specific binding was determined as the radioactivity that bound in the presence of the same unlabeled peptide at a concentration of 1 μM, and was ˜1% of total radioactivity added for each tracer. The maximum specific binding (B₀) was the total radioactivity bound in the absence of competing ligand, corrected for nonspecific binding, and for each tracer, ranged from 8% to 20% of the total radioactivity added. […]

Experiment [2] addresses T2, wild-type human PTH/PTHrP receptor (hP1R-WT) (human, UniProt Q03431 27-593).
T2 construct: whole, on cells; HKRK-B28 cells express ~280,000 receptors per cell; also called PTH-1 receptor; PTH-1R
T2 sequence (looked up): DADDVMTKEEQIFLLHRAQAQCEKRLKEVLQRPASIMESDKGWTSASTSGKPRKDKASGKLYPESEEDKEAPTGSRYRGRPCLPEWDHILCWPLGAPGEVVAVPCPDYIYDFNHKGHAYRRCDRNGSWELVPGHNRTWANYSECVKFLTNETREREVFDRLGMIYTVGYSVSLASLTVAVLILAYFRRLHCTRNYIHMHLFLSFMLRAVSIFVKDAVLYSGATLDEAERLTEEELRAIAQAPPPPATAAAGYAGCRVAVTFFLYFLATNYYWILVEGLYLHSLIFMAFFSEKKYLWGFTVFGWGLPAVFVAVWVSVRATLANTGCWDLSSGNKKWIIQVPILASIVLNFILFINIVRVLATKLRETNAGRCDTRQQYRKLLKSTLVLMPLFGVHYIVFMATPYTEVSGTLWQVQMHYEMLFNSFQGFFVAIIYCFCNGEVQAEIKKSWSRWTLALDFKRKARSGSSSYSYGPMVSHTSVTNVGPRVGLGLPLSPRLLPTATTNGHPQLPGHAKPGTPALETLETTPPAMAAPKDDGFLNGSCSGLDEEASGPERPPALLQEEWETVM
Briefly: competition binding, 125I-[M]PTH(1-21) tracer, HKRK-B28 cells, 4 h at 4 C. The method, boiled down:
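Cells are incubated with about 26 fmol ¹²⁵I-[M]PTH(1-21) tracer and unlabeled competitor in 300 μL for 4 h at 4 °C, then washed, lysed and counted. Nonspecific binding is defined with 1 μM of the same unlabeled peptide. IC50 values come from nonlinear regression, and the peptides are rat-PTH-based and C-terminally amidated.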

B1: [Aib^1,3,M]PTH(1-14) (peptide)
peptide: [Aib]V[Aib]EIQLMHQ[hArg]AKW-NH2
modifications: N-terminus assumed
SMILES: CC[C@H](C)[C@H](NC(=O)[C@H](CCC(=O)O)NC(=O)C(C)(C)NC(=O)[C@@H](NC(=O)C(C)(C)N)C(C)C)C(=O)N[C@@H](CCC(N)=O)C(=O)N[C@@H](CC(C)C)C(=O)N[C@@H](CCSC)C(=O)N[C@@H](Cc1c[nH]cn1)C(=O)N[C@@H](CCC(N)=O)C(=O)N[C@@H](CCCCNC(=N)N)C(=O)N[C@@H](C)C(=O)N[C@@H](CCCCN)C(=O)N[C@@H](Cc1c[nH]c2ccccc12)C(N)=O
notes: also called 671 [Aib^1,3, M]PTH (1-14); 671 [Aib^1,3M]PTH(1-14)
For the molecule B1, in experiment [1], the “fold stronger binding affinity than [M]PTH(1-14)” value is roughly 10 fold. Also, the IC50 (as a rule, the concentration that gives 50% inhibition) in experiment [2] was 130 nM.

B2: [Aib^1,3,M]PTH(1-21) (peptide)
peptide: [Aib]V[Aib]EIQL[Nle]HQ[hArg]AKWLASVRRY-NH2
modifications: N-terminus assumed
SMILES: CCCC[C@H](NC(=O)[C@H](CC(C)C)NC(=O)[C@H](CCC(N)=O)NC(=O)[C@@H](NC(=O)[C@H](CCC(=O)O)NC(=O)C(C)(C)NC(=O)[C@@H](NC(=O)C(C)(C)N)C(C)C)[C@@H](C)CC)C(=O)N[C@@H](Cc1c[nH]cn1)C(=O)N[C@@H](CCC(N)=O)C(=O)N[C@@H](CCCCNC(=N)N)C(=O)N[C@@H](C)C(=O)N[C@@H](CCCCN)C(=O)N[C@@H](Cc1c[nH]c2ccccc12)C(=O)N[C@@H](CC(C)C)C(=O)N[C@@H](C)C(=O)N[C@@H](CO)C(=O)N[C@H](C(=O)N[C@@H](CCCNC(=N)N)C(=O)N[C@@H](CCCNC(=N)N)C(=O)N[C@@H](Cc1ccc(O)cc1)C(N)=O)C(C)C
notes: unlabeled peptide; also called 674 [Aib^1,3, M]PTH (1-21); 674 [Aib^1,3M]PTH(1-21)
As to B2, the “fold difference in affinity against [Aib^1,3,M]PTH(1-14)” value in experiment [1] turned out to be 50 fold. This molecule yielded an IC50 in experiment [2] of 31 nM.
